{
  "source": "patent US12448610B2",
  "about": "“Preparation of glycosyltransferase UGT76G1 mutant and use thereof” (CAS Center for Excellence in Molecular Plant Sciences, priority 2019, dated 2025)",
  "format_in_all_cases": "biochemical",
  "key": {"[1]": {"assay": "Enzymic reaction of UGT76G1 wild-type and mutants in vitro, substrate orientin, products detected by HPLC", "conditions": "in words", "protocol": "(§1) The enzymic reaction system (50 μL) includes: 5 μg protein, 1.5 mM UDP-glucose, 250 μM glycosyl acceptor substrate isoorientin, orientin, apigenin or luteolin, and Buffer A (20 mM Tris-HCl, pH=8.0, 100 mM NaCl). The reaction of each mutant protein for the same substrate was repeated three times. Reaction conditions: 37° C. overnight. The reaction was quenched with an equal volume of methanol. After vigorous shaking, the reaction was centrifuged at 12000 rpm for 30 min. The supernatant was used for HPLC detection. Detection method: mobile phase A (acetonitrile, containing 0.1% formic acid)—mobile phase B (water, containing 0.1% formic acid) gradient elution. Chromatographic conditions: gradient elution from initial 5% A to 50% A within 11 min, elution at 100% A for 4 min, and back to 5% A within 1 min for equilibration for 4 min. The peak area of the catalytic product of the mutant was calculated and compared with the peak area of the catalytic product of wild-type UGT76G1."}, "[2]": {"assay": "Enzymic reaction of UGT76G1 wild-type and mutants in vitro, substrate isoorientin, products detected by HPLC", "conditions": "for conversion efficiency of isoorientin (compound 1): HPLC analysis of FIG. 1; for conversion efficiency of isoorientin (compound 1) / glycosylation efficiency: in words; for yield of compound 2 as compared with the wild type / yield of compound 3 as compared with the wild type: substrate isoorientin 250 μM, 5 μg protein, 1.5 mM UDP-glucose, 37° C. overnight, HPLC peak area, 100% for the wild type; for glycosylation efficiency: substrate isoorientin, versus wild type", "protocol": "The enzyme activity of the glycosyltransferase UGT76G1 mutant can be detected by a technique known in the art. In a specific example of the present invention, the enzyme reaction system with the same conditions is used to detect the enzyme activity of different mutants in vitro. After the reaction, the product was detected by HPLC. The change of a mutant's catalytic activity was analyzed by comparing the relative conversion ratio of the flavonoid isoorientin by the mutant and the wild-type protein.\nas §1"}, "[3]": {"assay": "Enzymic reaction of UGT76G1 wild-type and mutants in vitro, substrate apigenin, products detected by HPLC", "conditions": "HPLC analysis of FIG. 7; compared with wild-type (WT) or mutants I90L, I199L; in words", "protocol": "as §1"}, "[4]": {"assay": "Enzymic reaction of UGT76G1 wild-type and mutants in vitro, substrate luteolin, products detected by HPLC", "conditions": "HPLC analysis of FIG. 8; compared with wild-type (WT) or mutants I90L, I199L; in words", "protocol": "as §1"}, "[5]": {"conditions": "substrate orientin, versus wild type"}},
  "data": [
    {"molecule": "wild-type UGT76G1: wild-type glycosyltransferase UGT76G1 derived from Stevia rebaudiana, amino acid sequence of SEQ ID NO: 1 (protein, listed as Stevia rebaudiana) MENKTETTVRRRRRIILFPVPFQGHINPILQLANVLYSKGFSITIFHTNFNKPKTSNYPHFTFRFILDNDPQDERISNLPTHGPLAGMRIPIINEHGADELRRELELLMLASEEDEEVSCLITDALWYFAQSVADSLNLRRLVLMTSSLFNFHAHVSLPQFDELGYLDPDDKTRLEEQASGFPMLKVKDIKSAYSNWQILKEILGKMIKQTKASSGVIWNSFKELEESELETVIREIPAPSFLIPLPKHLTASSSSLLDHDRTVFQWLDQQPPSSVLYVSFGSSSEVDEKDFLEIARGLVDSKQSFLWVVRPGFVKGSTWVEPLPDGFLGERGRIVKWVPQQEVLAHGAIGAFWTHSGWNSTLESVCEGVPMIFSDFGLDQPLNARYMSDVLKVGVYLENGWERGEIANAIRRVMVDEEGEYIRQNARVLKQKADVSLMKGGSSYESLESLVSYISSL", "values": [
      {"measurement": "conversion rate for orientin (compound 4)", "setting": "[1]; HPLC analysis of FIG. 5", "result": "a certain conversion rate"},
      {"measurement": "conversion efficiency of isoorientin (compound 1)", "setting": "[2]", "result": "low"}
    ]},
    {"molecule": "G87F: glycosyltransferase UGT76G1 mutant, mutation of G at 87th to F (SEQ ID NO: 2) (protein, Variant) MENKTETTVRRRRRIILFPVPFQGHINPILQLANVLYSKGFSITIFHTNFNKPKTSNYPHFTFRFILDNDPQDERISNLPTHGPLAFMRIPIINEHGADELRRELELLMLASEEDEEVSCLITDALWYFAQSVADSLNLRRLVLMTSSLFNFHAHVSLPQFDELGYLDPDDKTRLEEQASGFPMLKVKDIKSAYSNWQILKEILGKMIKQTKASSGVIWNSFKELEESELETVIREIPAPSFLIPLPKHLTASSSSLLDHDRTVFQWLDQQPPSSVLYVSFGSSSEVDEKDFLEIARGLVDSKQSFLWVVRPGFVKGSTWVEPLPDGFLGERGRIVKWVPQQEVLAHGAIGAFWTHSGWNSTLESVCEGVPMIFSDFGLDQPLNARYMSDVLKVGVYLENGWERGEIANAIRRVMVDEEGEYIRQNARVLKQKADVSLMKGGSSYESLESLVSYISSL", "values": [
      {"measurement": "glycosylation products of apigenin (compound 7)", "setting": "[3]", "result": "significantly different from those converted by wild-type"},
      {"measurement": "conversion efficiency of isoorientin (compound 1)", "setting": "[2]", "result": "relatively the highest"},
      {"measurement": "yield of compound 2 as compared with the wild type", "setting": "[2]", "result": 1381, "unit": "%"},
      {"measurement": "yield of compound 3 as compared with the wild type", "setting": "[2]", "result": 1235, "unit": "%"},
      {"measurement": "glycosylation efficiency", "setting": "[2]", "result": "significantly increased"},
      {"measurement": "glycosylation products of luteolin (compound 8)", "setting": "[4]", "result": "significantly different from those converted by wild-type"}
    ]},
    {"molecule": "I199F: glycosyltransferase UGT76G1 mutant, mutation of I at 199th to F (SEQ ID NO: 3) (protein, Variant) MENKTETTVRRRRRIILFPVPFQGHINPILQLANVLYSKGFSITIFHTNFNKPKTSNYPHFTFRFILDNDPQDERISNLPTHGPLAGMRIPIINEHGADELRRELELLMLASEEDEEVSCLITDALWYFAQSVADSLNLRRLVLMTSSLFNFHAHVSLPQFDELGYLDPDDKTRLEEQASGFPMLKVKDIKSAYSNWQFLKEILGKMIKQTKASSGVIWNSFKELEESELETVIREIPAPSFLIPLPKHLTASSSSLLDHDRTVFQWLDQQPPSSVLYVSFGSSSEVDEKDFLEIARGLVDSKQSFLWVVRPGFVKGSTWVEPLPDGFLGERGRIVKWVPQQEVLAHGAIGAFWTHSGWNSTLESVCEGVPMIFSDFGLDQPLNARYMSDVLKVGVYLENGWERGEIANAIRRVMVDEEGEYIRQNARVLKQKADVSLMKGGSSYESLESLVSYISSL", "values": [
      {"measurement": "yield of compound 2 as compared with the wild type", "setting": "[2]", "result": 799, "unit": "%"},
      {"measurement": "yield of compound 3 as compared with the wild type", "setting": "[2]", "result": 278, "unit": "%"},
      {"measurement": "glycosylation efficiency", "setting": "[2]", "result": "significantly increased"}
    ]},
    {"molecule": "L204F: glycosyltransferase UGT76G1 mutant, mutation of L at 204th to F (SEQ ID NO: 4) (protein, Variant) MENKTETTVRRRRRIILFPVPFQGHINPILQLANVLYSKGFSITIFHTNFNKPKTSNYPHFTFRFILDNDPQDERISNLPTHGPLAGMRIPIINEHGADELRRELELLMLASEEDEEVSCLITDALWYFAQSVADSLNLRRLVLMTSSLFNFHAHVSLPQFDELGYLDPDDKTRLEEQASGFPMLKVKDIKSAYSNWQILKEIFGKMIKQTKASSGVIWNSFKELEESELETVIREIPAPSFLIPLPKHLTASSSSLLDHDRTVFQWLDQQPPSSVLYVSFGSSSEVDEKDFLEIARGLVDSKQSFLWVVRPGFVKGSTWVEPLPDGFLGERGRIVKWVPQQEVLAHGAIGAFWTHSGWNSTLESVCEGVPMIFSDFGLDQPLNARYMSDVLKVGVYLENGWERGEIANAIRRVMVDEEGEYIRQNARVLKQKADVSLMKGGSSYESLESLVSYISSL", "values": [
      {"measurement": "glycosylation products of apigenin (compound 7)", "setting": "[3]", "result": "significantly different from those converted by wild-type"},
      {"measurement": "production efficiency of product 5", "setting": "[1]; [5]", "result": "can increase"},
      {"measurement": "yield of compound 2 as compared with the wild type", "setting": "[2]", "result": 285, "unit": "%"},
      {"measurement": "yield of compound 3 as compared with the wild type", "setting": "[2]", "result": 159, "unit": "%"},
      {"measurement": "glycosylation efficiency", "setting": "[2]", "result": "significantly increased"},
      {"measurement": "glycosylation products of luteolin (compound 8)", "setting": "[4]", "result": "significantly different from those converted by wild-type"}
    ]},
    {"molecule": "L379W: glycosyltransferase UGT76G1 mutant, mutation of L at 379th to W (SEQ ID NO: 5) (protein, Variant) MENKTETTVRRRRRIILFPVPFQGHINPILQLANVLYSKGFSITIFHTNFNKPKTSNYPHFTFRFILDNDPQDERISNLPTHGPLAGMRIPIINEHGADELRRELELLMLASEEDEEVSCLITDALWYFAQSVADSLNLRRLVLMTSSLFNFHAHVSLPQFDELGYLDPDDKTRLEEQASGFPMLKVKDIKSAYSNWQILKEILGKMIKQTKASSGVIWNSFKELEESELETVIREIPAPSFLIPLPKHLTASSSSLLDHDRTVFQWLDQQPPSSVLYVSFGSSSEVDEKDFLEIARGLVDSKQSFLWVVRPGFVKGSTWVEPLPDGFLGERGRIVKWVPQQEVLAHGAIGAFWTHSGWNSTLESVCEGVPMIFSDFGWDQPLNARYMSDVLKVGVYLENGWERGEIANAIRRVMVDEEGEYIRQNARVLKQKADVSLMKGGSSYESLESLVSYISSL", "values": [
      {"measurement": "production efficiency of product 6", "setting": "[1]; [5]", "result": "can increase"}
    ]}
  ]
}
